Assay results reported in article PMC7793260, “MreC and MreD balance the interaction between the elongasome proteins PBP2 and RodA” (PLoS Genetics, 2020).

Assays:
Conditions in all cases: partners not purified
mKO-PBP2^L61R [1] = target: T1, mKO-PBP2^L61R (E. coli, UniProt P0AD65 1-633, L61R); test: FRET or BRET; two-plasmid spectral FRET in E. coli LMC500 cells; mCherry fusion as acceptor, mKO fusion as donor; Gb4 medium, steady state at 28 C, 15 uM IPTG for two mass doublings, FAGA-fixed; acceptor FRET efficiency (EfA) by spectral unmixing
T1 construct: PBP2 of E. coli with L61R (hyperactive variant); made from pWA004 by mutagenesis PCR; also called hyperactive PBP2^L61R; source: E. coli LMC500, expressed from plasmid (15 uM IPTG), in fixed cells; not shown: mKO, N-terminal, kept
T1 sequence (looked up): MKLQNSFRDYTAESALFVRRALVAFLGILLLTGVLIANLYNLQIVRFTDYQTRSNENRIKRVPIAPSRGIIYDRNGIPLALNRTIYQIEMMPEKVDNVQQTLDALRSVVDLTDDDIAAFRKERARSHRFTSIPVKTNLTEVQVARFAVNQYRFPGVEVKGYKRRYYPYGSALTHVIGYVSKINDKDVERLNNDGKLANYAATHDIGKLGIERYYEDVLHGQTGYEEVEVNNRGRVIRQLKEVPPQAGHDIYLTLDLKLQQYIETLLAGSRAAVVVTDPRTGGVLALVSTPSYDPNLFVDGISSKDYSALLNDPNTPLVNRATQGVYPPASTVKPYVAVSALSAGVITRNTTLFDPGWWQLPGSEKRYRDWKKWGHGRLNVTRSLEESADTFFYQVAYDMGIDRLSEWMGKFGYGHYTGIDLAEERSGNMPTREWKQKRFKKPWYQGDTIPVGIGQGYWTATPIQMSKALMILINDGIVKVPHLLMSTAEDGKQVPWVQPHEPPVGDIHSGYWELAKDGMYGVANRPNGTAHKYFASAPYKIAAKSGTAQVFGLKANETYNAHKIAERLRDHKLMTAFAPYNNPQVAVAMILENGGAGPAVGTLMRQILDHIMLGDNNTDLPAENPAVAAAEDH

[2] = target: T2, PBP2 (wild type), fused to mKO or to mCherry (E. coli, UniProt P0AD65 1-633); test: FRET or BRET; as the two-plasmid FRET, cells treated with mecillinam (2 mg/L) for two mass doublings
T2 construct: PBP2, peptidoglycan transpeptidase of the E. coli elongasome, wild type; mKO-PBP2 in all others; also called mKO-PBP2^WT; mKO-PBP2; source: E. coli LMC500, expressed from plasmid (15 uM IPTG), in fixed cells; not shown: mKO (donor construct, pWA004) or mCherry (acceptor construct), N-terminal, kept
T2 sequence (looked up): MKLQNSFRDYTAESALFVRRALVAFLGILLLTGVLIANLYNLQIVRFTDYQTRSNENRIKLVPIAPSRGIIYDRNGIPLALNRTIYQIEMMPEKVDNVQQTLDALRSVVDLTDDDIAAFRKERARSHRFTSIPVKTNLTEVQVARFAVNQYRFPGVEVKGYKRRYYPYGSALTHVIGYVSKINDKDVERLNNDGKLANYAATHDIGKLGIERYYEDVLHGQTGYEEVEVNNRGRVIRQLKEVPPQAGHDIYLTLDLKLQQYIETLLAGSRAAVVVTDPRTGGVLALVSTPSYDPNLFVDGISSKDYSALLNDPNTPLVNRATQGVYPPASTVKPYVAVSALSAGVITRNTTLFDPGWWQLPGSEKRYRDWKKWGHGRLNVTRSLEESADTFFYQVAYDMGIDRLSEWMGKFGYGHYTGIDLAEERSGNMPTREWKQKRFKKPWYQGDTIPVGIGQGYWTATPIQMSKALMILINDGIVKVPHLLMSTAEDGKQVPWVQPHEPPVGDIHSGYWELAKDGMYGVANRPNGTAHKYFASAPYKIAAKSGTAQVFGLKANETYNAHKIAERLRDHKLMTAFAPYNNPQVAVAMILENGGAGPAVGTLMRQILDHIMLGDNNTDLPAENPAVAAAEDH

mKO-PBP2^L61R [3] = target: T1, mKO-PBP2^L61R; test: as above
mKO-^MalF37PBP2 = target: T3, mKO-^MalF37PBP2 (E. coli, UniProt P02916 1-37; P0AD65 46-633); test: as above
T3 construct: MalF of E. coli, the first 37 residues (cytoplasmic N-terminus and transmembrane helix), amplified from the MG1655 genome; PBP2 of E. coli excluding the first 45 residues (NT and TMH removed, periplasmic domain kept); also called PBP2 with the NT and TMH of MalF; source: E. coli LMC500, expressed from plasmid (15 uM IPTG), in fixed cells; not shown: mKO, N-terminal, kept
T3 chain (looked up): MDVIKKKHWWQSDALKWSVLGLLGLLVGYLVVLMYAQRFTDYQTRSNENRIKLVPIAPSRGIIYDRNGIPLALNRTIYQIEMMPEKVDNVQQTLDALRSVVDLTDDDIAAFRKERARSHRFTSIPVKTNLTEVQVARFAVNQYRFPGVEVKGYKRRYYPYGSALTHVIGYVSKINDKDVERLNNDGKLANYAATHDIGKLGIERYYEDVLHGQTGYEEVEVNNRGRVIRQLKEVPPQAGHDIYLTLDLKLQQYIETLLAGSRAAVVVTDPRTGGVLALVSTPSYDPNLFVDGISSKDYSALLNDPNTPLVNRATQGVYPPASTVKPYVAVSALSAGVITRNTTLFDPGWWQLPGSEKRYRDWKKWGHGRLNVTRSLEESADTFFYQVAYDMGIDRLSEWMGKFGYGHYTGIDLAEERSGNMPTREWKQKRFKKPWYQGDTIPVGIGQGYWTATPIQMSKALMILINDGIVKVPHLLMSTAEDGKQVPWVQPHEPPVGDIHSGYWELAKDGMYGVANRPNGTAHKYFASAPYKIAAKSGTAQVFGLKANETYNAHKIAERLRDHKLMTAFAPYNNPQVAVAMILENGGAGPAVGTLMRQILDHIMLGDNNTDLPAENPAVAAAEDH

EfA (acceptor FRET efficiency) (mKO-PBP2^L61R [1]): 10.8%
EfA (acceptor FRET efficiency) [2]: 7.9%
EfA (acceptor FRET efficiency) (mKO-PBP2^L61R [3]): 6.3%
EfA (acceptor FRET efficiency) (mKO-^MalF37PBP2): 3%
B1: RodA (wild type), fused to mCherry or to mKO (enzyme, E. coli, UniProt P0ABG7 1-370, looked up)
chain: MTDNPNKKTFWDKVHLDPTMLLILLALLVYSALVIWSASGQDIGMMERKIGQIAMGLVIMVVMAQIPPRVYEGWAPYLYIICIILLVAVDAFGAISKGAQRWLDLGIVRFQPSEIAKIAVPLMVARFINRDVCPPSLKNTGIALVLIFMPTLLVAAQPDLGTSILVALSGLFVLFLSGLSWRLIGVAVVLVAAFIPILWFFLMHDYQRQRVMMLLDPESDPLGAGYHIIQSKIAIGSGGLRGKGWLHGTQSQLEFLPERHTDFIFAVLAEELGLVGILILLALYILLIMRGLWIAARAQTTFGRVMAGGLMLILFVYVFVNIGMVSGILPVVGVPLPLVSYGGSALIVLMAGFGIVMSIHTHRKMLSKSV
notes: RodA, peptidoglycan glycosyltransferase of the E. coli elongasome; wild-type rodA gene; mCh-RodA in all others; also called mCh-RodA; mKO-RodA; source: E. coli LMC500, expressed from plasmid (15 uM IPTG), in fixed cells; not shown: mCherry (acceptor construct, pSAV047-RodA) or mKO (donor construct, pXL56), N-terminal, kept
